Experimental data published in patent publication US20250207119A1 (VERRA THERAPEUTICS, published 2025).
Where a chain is given by its changes, count along the chain named. Names and notes keep the numbering of the source.

Tests used:
Experiment in all cases: cell-based or functional assay
[1] = biological target: T1, Human ADAM10 from R & D Systems (human, UniProt O14672 214-672)
T1 sequence (looked up): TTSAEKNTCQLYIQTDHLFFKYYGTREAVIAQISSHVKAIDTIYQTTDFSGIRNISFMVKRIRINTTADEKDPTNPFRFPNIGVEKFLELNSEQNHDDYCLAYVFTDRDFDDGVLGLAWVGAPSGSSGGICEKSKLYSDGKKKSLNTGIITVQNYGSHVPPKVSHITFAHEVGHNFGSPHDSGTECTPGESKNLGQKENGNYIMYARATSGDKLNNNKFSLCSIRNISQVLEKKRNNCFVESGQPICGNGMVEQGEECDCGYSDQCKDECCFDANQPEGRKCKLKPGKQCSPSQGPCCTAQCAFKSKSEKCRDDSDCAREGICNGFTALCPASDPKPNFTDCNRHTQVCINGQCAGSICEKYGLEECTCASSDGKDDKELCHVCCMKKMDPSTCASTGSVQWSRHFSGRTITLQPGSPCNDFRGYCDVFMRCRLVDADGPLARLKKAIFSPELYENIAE

[2] = biological target: Meprin from R & D Systems
[3] = biological target: T2, MMP 2 (UniProt P08253 30-660, limits assumed)
T2 sequence (looked up): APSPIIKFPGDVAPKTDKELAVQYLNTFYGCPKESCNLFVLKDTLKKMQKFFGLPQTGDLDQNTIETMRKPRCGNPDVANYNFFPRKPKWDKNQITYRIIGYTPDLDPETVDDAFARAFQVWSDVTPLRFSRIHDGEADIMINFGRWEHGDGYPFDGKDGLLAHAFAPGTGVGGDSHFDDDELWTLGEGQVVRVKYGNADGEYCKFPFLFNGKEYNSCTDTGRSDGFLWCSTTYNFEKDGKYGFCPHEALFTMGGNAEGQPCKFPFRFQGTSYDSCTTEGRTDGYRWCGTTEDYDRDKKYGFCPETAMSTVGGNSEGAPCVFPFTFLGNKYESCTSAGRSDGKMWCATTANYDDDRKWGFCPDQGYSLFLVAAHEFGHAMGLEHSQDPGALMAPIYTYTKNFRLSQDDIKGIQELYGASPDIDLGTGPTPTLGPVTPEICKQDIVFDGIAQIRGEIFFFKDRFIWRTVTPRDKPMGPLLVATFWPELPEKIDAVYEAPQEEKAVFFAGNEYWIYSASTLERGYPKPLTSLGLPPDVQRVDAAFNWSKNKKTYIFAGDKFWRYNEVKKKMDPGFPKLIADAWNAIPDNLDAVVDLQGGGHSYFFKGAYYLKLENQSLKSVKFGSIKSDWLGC

[4] = biological target: MMP 3 (UniProt P08254 18-477, limits assumed)
[5] = biological target: MMP 9 (UniProt P14780 20-707, limits assumed)
[6] = biological target: MMP 12 (UniProt P39900 17-470, limits assumed)
[7] = biological target: MMP 14 (UniProt P50281 21-538)

Sequence of MMP 9 (P14780 20-707 limits assumed): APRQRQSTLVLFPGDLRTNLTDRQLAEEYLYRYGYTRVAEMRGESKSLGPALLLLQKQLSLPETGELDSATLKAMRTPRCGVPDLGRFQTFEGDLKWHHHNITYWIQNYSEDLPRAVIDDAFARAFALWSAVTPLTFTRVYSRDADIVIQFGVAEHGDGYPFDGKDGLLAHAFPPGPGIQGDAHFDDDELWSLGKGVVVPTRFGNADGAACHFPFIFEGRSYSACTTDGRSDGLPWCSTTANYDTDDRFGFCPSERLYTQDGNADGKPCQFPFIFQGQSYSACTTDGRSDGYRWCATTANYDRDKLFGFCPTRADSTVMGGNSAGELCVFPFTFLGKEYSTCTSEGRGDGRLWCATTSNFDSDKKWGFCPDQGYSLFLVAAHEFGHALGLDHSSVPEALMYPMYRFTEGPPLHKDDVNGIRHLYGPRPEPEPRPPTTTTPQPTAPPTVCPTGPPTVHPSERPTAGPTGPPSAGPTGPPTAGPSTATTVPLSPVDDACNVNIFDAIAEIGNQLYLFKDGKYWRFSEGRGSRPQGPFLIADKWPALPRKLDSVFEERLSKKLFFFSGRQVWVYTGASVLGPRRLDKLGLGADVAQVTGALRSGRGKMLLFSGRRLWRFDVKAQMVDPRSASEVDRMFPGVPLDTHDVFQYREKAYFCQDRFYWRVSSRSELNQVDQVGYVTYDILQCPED
Sequence of MMP 12 (P39900 17-470 limits assumed): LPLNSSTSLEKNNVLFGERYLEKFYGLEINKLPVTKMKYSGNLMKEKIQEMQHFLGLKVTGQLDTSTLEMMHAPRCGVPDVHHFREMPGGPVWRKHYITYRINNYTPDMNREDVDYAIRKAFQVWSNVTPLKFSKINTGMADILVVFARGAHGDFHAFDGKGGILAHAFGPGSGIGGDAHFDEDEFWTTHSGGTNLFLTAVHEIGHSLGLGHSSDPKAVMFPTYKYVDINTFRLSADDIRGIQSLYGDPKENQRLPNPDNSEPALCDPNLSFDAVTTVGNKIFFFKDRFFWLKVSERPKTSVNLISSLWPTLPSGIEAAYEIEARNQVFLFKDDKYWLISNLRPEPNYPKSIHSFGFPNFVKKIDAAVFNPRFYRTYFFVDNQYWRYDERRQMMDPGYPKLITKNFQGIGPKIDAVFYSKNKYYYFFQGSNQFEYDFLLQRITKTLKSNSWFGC
Sequence of MMP 3 (P08254 18-477 limits assumed): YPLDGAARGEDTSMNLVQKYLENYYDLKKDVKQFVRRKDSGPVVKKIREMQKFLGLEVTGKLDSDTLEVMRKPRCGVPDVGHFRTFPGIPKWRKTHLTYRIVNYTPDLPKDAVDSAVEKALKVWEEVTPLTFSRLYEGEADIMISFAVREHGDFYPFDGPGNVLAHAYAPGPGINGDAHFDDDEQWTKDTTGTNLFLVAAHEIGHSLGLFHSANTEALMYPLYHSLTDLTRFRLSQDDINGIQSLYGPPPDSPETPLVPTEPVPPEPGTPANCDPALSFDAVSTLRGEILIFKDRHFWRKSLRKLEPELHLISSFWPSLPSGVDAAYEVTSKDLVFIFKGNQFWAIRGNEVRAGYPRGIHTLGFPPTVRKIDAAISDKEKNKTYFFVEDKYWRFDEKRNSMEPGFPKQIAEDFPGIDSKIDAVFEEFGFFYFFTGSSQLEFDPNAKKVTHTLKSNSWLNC

B1: SEQ ID NO: 64 (SEQ ID NO: 2 with R29K; R55K; C151S) (peptide)
chain: NPLNKYIRHYEGLSYNVDSLHQKHQRAKKAVSHEDQFLLLDFHAHGRQFNLRMKKDTSLFSDEFKVETSNKVLDYDTSHIYTGHIYGEEGSFSHGSVIDGRFEGFIKTRGGTFYIEPAERYIKDRILPFHSVIYHEDDINYPHKYGPQGGSADHSVFERMRKYQMTGVEEGARAHPEKHAASSGPELLRK
- IC50 (nM), inhibition of ADAM10 cleavage of the fluorescent substrate PEPDAB064 [1]: 83 nM
- IC50 (nM), inhibition of meprin cleavage of the fluorescent substrate PEPDAB022 [2]: 682 nM

B2: SEQ ID NO: 65 (R26A; R52A; C151S) (peptide)
chain: NPLNKYIRHYEGLSYNVDSLHQKHQAAKRAVSHEDQFLRLDFHAHGRHFNLAMKRDTSLFSDEFKVETSNKVLDYDTSHIYTGHIYGEEGSFSHGSVIDGRFEGFIQTRGGTFYVEPAERYIKDRTLPFHSVIYHEDDINYPHKYGPQGGSADHSVFERMRKYQMTGVEEVTQIPQAEHAANGPELLRK
- IC50 (nM), inhibition of ADAM10 cleavage of the fluorescent substrate PEPDAB064 [1]: 49 nM
- IC50 (nM), inhibition of meprin cleavage of the fluorescent substrate PEPDAB022 [2]: 289 nM

B3: SEQ ID NO: 66 (SEQ ID NO: 1/SEQ ID NO: 2 hybrid; R26A; R55A; C151S; E177A) (peptide)
chain: B2 chain with R39L, H48Q, A52R, R55A, L73P, Q107K, V115I, T126I
- IC50 (nM), inhibition of ADAM10 cleavage of the fluorescent substrate PEPDAB064 [1]: 234 nM

B4: SEQ ID NO: 67 (SEQ ID NO: 1/SEQ ID NO: 2 hybrid; R26A; R52A; C151S) (peptide)
chain: B1 chain with R26A, K29R, L39R, Q48H, R52A, K55R, K107Q, I115V, I126T
- IC50 (nM), inhibition of ADAM10 cleavage of the fluorescent substrate PEPDAB064 [1]: 147 nM

B5: SEQ ID NO: 68 (R26A; R55A; C151S) (peptide)
chain: B2 chain with A52R, R55A
- IC50 (nM), inhibition of ADAM10 cleavage of the fluorescent substrate PEPDAB064 [1]: 130 nM

B6: C-term PEG-SEQ ID NO: 69 (R29K; R55K; E177A) (peptide)
chain: B2 chain with A26R, R29K, A52R, R55K, S151C
modifications: 10 kDa maleimide PEG on a cysteine; printed as 'C-term PEG' in Table 5 (the listed changes keep Cys151, and paragraph 162 speaks of a cysteine at C151, or the N- or C-terminus, for SEQ ID NOs: 69-71)
- IC50 (nM), inhibition of ADAM10 cleavage of the fluorescent substrate PEPDAB064 [1]: 71 nM
- IC50, inhibition of meprin cleavage of the fluorescent substrate PEPDAB022 [2]: ~5000 nM

B7: N-term PEG-SEQ ID NO: 70 (R29K; R55K; C151S; E177A) (peptide)
chain: CGSNPLNKYIRHYEGLSYNVDSLHQKHQRAKKAVSHEDQFLRLDFHAHGRHFNLRMKKDTSLFSDEFKVETSNKVLDYDTSHIYTGHIYGEEGSFSHGSVIDGRFEGFIQTRGGTFYVEPAERYIKDRTLPFHSVIYHEDDINYPHKYGPQGGSADHSVFERMRKYQMTGVEEVTQIPQAEHAANGPELLRK
modifications: 10 kDa maleimide PEG on a cysteine at the N-terminus ('N-term PEG')
- IC50 (nM), inhibition of ADAM10 cleavage of the fluorescent substrate PEPDAB064 [1]: 52 nM
- IC50, inhibition of meprin cleavage of the fluorescent substrate PEPDAB022 [2]: ~7000 nM

B8: C-term PEG-SEQ ID NO: 71 (R29K; R55K; C151S; E177A) (peptide)
chain: NPLNKYIRHYEGLSYNVDSLHQKHQRAKKAVSHEDQFLRLDFHAHGRHFNLRMKKDTSLFSDEFKVETSNKVLDYDTSHIYTGHIYGEEGSFSHGSVIDGRFEGFIQTRGGTFYVEPAERYIKDRTLPFHSVIYHEDDINYPHKYGPQGGSADHSVFERMRKYQMTGVEEVTQIPQAEHAANGPELLRKGSGSC
modifications: 10 kDa maleimide PEG on a cysteine at the C-terminus ('C-term PEG')
- IC50 (nM), inhibition of ADAM10 cleavage of the fluorescent substrate PEPDAB064 [1]: 19 nM
- IC50, inhibition of meprin cleavage of the fluorescent substrate PEPDAB022 [2]: ~4000 nM

B9: SEQ ID NO: 5 (mut 1; K28A; K54A) (peptide)
chain: B2 chain with A26R, K28A, A52R, K54A, S151C, A177E
- IC50 (nM), inhibition of ADAM10 cleavage of the fluorescent substrate PEPDAB064 [1]: 104 nM

B10: SEQ ID NO: 62 (R29A; R55A; C151S; E177A) (peptide)
chain: B2 chain with A26R, R29A, A52R, R55A
- IC50 (nM), inhibition of ADAM10 cleavage of the fluorescent substrate PEPDAB064 [1]: 110 nM
- percent inhibition of MMP activity (PEPDAB008 substrate) [3]: 0 % at 8 µM
- percent inhibition of MMP activity (PEPDAB008 substrate) [4]: 0 % at 8 µM
- percent inhibition of MMP activity (PEPDAB008 substrate) [5]: 0 % at 8 µM
- percent inhibition of MMP activity (PEPDAB008 substrate) [6]: 0 % at 8 µM
- percent inhibition of MMP activity (PEPDAB008 substrate) [7]: 0 % at 8 µM
- IC50 (nM), inhibition of meprin cleavage of the fluorescent substrate PEPDAB022 [2]: 817 nM

B11: Cys151-pegylated SEQ ID NO: 5 (K28A; K54A) (peptide)
chain: B2 chain with A26R, K28A, A52R, K54A, S151C, A177E
modifications: 10 kDa maleimide PEG on Cys151
- IC50 (nM), inhibition of ADAM10 cleavage of the fluorescent substrate PEPDAB064 [1]: 83 nM

B12: SEQ ID NO: 34 (R29A; C151S; E177A) (peptide)
chain: B2 chain with A26R, R29A, A52R
- IC50 (nM), inhibition of ADAM10 cleavage of the fluorescent substrate PEPDAB064 [1]: 95 nM
- IC50 (nM), inhibition of meprin cleavage of the fluorescent substrate PEPDAB022 [2]: 289 nM

B13: SEQ ID NO: 63 (R29K; R55K; C151S; E177A) (peptide)
chain: B2 chain with A26R, R29K, A52R, R55K
- IC50 (nM), inhibition of ADAM10 cleavage of the fluorescent substrate PEPDAB064 [1]: 35 nM
- IC50 (nM), inhibition of meprin cleavage of the fluorescent substrate PEPDAB022 [2]: 542 nM

B14: SEQ ID NO: 6 (mut2; K28A; K54A; C151S) (peptide)
chain: B2 chain with A26R, K28A, A52R, K54A, A177E
- IC50 (nM), inhibition of ADAM10 cleavage of the fluorescent substrate PEPDAB064 [1]: 106 nM

B15: SEQ ID NO: 9 (mut3; K28A; K54A; E88A; E177A) (peptide)
chain: B2 chain with A26R, K28A, A52R, K54A, E88A, S151C
- IC50 (nM), inhibition of ADAM10 cleavage of the fluorescent substrate PEPDAB064 [1]: 142 nM
